Target: poly(A)-binding protein (PABP), P11940
Assay: co-immunoprecipitation with anti-FLAG antibody, Western blot quantified with ImageJ
Conditions: chain shown with the change; HeLa cells; two independent experiments; parent: est. 1.0; read off a plot

Chain of poly(A)-binding protein (PABP), P11940 (P11940 whole entry): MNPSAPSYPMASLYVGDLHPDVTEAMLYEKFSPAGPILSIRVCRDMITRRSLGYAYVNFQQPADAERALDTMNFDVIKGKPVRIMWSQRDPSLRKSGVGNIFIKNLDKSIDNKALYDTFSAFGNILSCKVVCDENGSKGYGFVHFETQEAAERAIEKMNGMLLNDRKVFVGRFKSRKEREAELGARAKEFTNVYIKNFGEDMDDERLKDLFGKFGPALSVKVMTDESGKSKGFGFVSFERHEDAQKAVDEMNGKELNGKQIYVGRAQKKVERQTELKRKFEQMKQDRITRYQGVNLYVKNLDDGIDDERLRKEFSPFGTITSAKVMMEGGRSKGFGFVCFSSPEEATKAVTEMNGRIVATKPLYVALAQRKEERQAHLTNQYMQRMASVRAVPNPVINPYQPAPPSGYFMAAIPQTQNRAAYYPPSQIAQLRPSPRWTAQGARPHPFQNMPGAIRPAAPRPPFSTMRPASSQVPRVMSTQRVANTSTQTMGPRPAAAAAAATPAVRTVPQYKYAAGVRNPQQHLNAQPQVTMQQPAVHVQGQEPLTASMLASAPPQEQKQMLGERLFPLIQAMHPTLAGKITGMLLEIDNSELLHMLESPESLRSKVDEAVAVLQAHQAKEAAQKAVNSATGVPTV

B1: FLAG-HA-SBP (FHS)-tagged full-length TNRC6A, wild type, Q8NDV7-2 S1332D; S1346D (protein)
chain: MDADSASSSESERNITIMASGNTGGEKDGLRNSTGLGSQNKFVVGSSSNNVGHGSSTGPWGFSHGAIISTCQVSVDAPESKSESSNNRMNAWGTVSSSSNGGLNPSTLNSASNHGAWPVLENNGLALKGPVGSGSSGINIQCSTIGQMPNNQSINSKVSGGSTHGTWGSLQETCESEVSGTQKVSFSGQPQNITTEMTGPNNTTNFMTSSLPNSGSVQNNELPSSNTGAWRVSTMNHPQMQAPSGMNGTSLSHLSNGESKSGGSYGTTWGAYGSNYSGDKCSGPNGQANGDTVNATLMQPGVNGPMGTNFQVNTNKGGGVWESGAANSQSTSWGSGNGANSGGSRRGWGTPAQNTGTNLPSVEWNKLPSNQHSNDSANGNGKTFTNGWKSTEEEDQGSATSQTNEQSSVWAKTGGTVESDGSTESTGRLEEKGTGESQSRDRRKIDQHTLLQSIVNRTDLDPRVLSNSGWGQTPIKQNTAWDTETSPRGERKTDNGTEAWGSSATQTFNSGACIDKTSPNGNDTSSVSGWGDPKPALRWGDSKGSNCQGGWEDDSAATGMVKSNQWGNCKEEKAAWNDSQKNKQGWGDGQKSSQGWSVSASDNWGETSRNNHWGEANKKSSSGGSDSDRSVSGWNELGKTSSFTWGNNINPNNSSGWDESSKPTPSQGWGDPPKSNQSLGWGDSSKPVSSPDWNKQQDIVGSWGIPPATGKPPGTGWLGGPIPAPAKEEEPTGWEEPSPESIRRKMEIDDGTSAWGDPSKYNYKNVNMWNKNVPNGNSRSDQQAQVHQLLTPASAISNKEASSGSGWGEPWGEPSTPATTVDNGTSAWGKPIDSGPSWGEPIAAASSTSTWGSSSVGPQALSKSGPKSMQDGWCGDDMPLPGNRPTGWEEEEDVEIGMWNSNSSQELNSSLNWPPYTKKMSSKGLSGKKRRRERGMMKGGNKQEEAWINPFVKQFSNISFSRDSPEENVQSNKMDLSGGMLQDKRMEIDKHSLNIGDYNRTVGKGPGSRPQISKESSMERNPYFDKDGIVADESQNMQFMSSQSMKLPPSNSALPNQALGSIAGLGMQNLNSVRQNGNPSMFGVGNTAAQPRGMQQPPAQPLSSSQPNLRAQVPPPLLSPQVPVSLLKYAPNNGGLNPLFGPQQVAMLNQLSQLNQLSQISQLQRLLAQQQRAQSQRSVPSGNRPQQDQQGRPLSVQQQMMQQSRQLDPNLLVKQQTPPSQQQPLHQPAMKSFLDNVMPHTTPELQKGPSPINAFSNFPIGLNSNLNVNMDMNSIKEPQSRLRKWTTVDSISVNTSLDQNSSKHGAISSGFRLEESPFVPYDFMNSSTSPADPPGSIGDGWPRAKDPNGSSSVNWPPEFRPGEPWKGYPNIDPETDPYVTPGSVINNLSINTVREVDHLRDRNSGSSSSLNTTLPSTSAWSSIRASNYNVPLSSTAQSTSARNSDSKLTWSPGSVTNTSLAHELWKVPLPPKNITAPSRPPPGLTGQKPPLSTWDNSPLRIGGGWGNSDARYTPGSSWGESSSGRITNWLVLKNLTPQIDGSTLRTLCMQHGPLITFHLNLPHGNALVRYSSKEEVVKAQKSLHMCVLGNTTILAEFASEEEISRFFAQSQSLTPSPGWQSLGSSQSRLGSLDCSHSFSSRTDLNHWNGAGLSGTNCGDLHGTSLWGTPHYSTSLWGPPSSSDPRGISSPSPINAFLSVDHLGGGGESM
  response: 1.4

Source: paper PMC7917804
